Patent US20230243822A1, “MOLECULAR DISEASE PROFILE AND USE THEREOF FOR MONITORING AND TREATING RHEUMATAOID ARTHRITIS” (JANSSEN BIOTECH, INC., priority 2020, published 2023)

How the values were obtained:
RA patients = conditions: RA patients; cited from earlier work
[1] = tested on: 4-analyte M-DP panel (CRP, CXCL10, CXCL13, SAA); test: Pharmacodynamic M-DP score, 4-analyte panel CRP, CXCL10, CXCL13, SAA (SOMAscan), clinical studies in RA; assay type: in vivo, human; conditions: 4-analyte; for M-DP score mean difference ± SD, Good vs. No / M-DP score mean ± SD, DAS28-CRP response group Good / M-DP score mean ± SD, DAS28-CRP response group Moderate / M-DP score mean ± SD, DAS28-CRP response group No: response at week 24
Description: Serum samples and data from eight interventional clinical studies with seven different active treatments for RA or placebo treatment were obtained and analyzed: sirukumab (anti-IL-6) and placebo treatments in SIRROUND-M (NCT01689532; Takeuchi T, et al. Arthritis Res Ther. 2018 Mar. 7; 20(1): 42), SIRROUND-D (NCT01604343; Takeuchi T, et al. Ann Rheum Dis. 2017 Dec.; 76(12): 2001-2008), and SIRROUND-T (NCT01606761; Aletaha D, et al. Lancet. 2017 Mar. 25; 389(10075): 1206-1217); sirukumab and adalimumab (anti-TNF-alpha) treatments in SIRROUND-H (NCT02019472; Taylor PC, et al. Ann Rheum Dis. 2018 May; 77(5): 658-666); golimumab (anti-TNF-alpha) treatment in GO-FURTHER (NCT00973479; Weinblatt ME, et al. Ann Rheum Dis. 2013 March; 72(3): 381-9); guselkumab (anti-IL-23p19), ustekinumab (anti-IL-12/IL-23p40), and placebo treatments in CNTO1275ARA2001 (NCT01645280; Cox JD, et al. […]); JNJ-40346527 (colony-stimulating factor-1 inhibitor) and placebo treatments in 40346527ARA2001 (NCT01597739; Genovese MC, et al. J Rheumatol. 2015 October; 42(10): 1752-60). Plasma samples were obtained from the RA-MAP TACERA study (Cope AP, et al. Nat Rev Rheumatol. 2018 January; 14(1): 53-60) before (baseline) and 6-months after initiation of conventional synthetic disease-modifying anti-rheumatic drugs (csDMARDs). Details of treatment dose groups, concomitant methotrexate use, and previous experience with csDMARDs and biologics are reported in Table 1. The studies were conducted in accordance with the Declaration of Helsinki. The study protocols were reviewed and approved by an independent ethics committee or institutional review board for each study center. Written informed consent was obtained from all patients before study entry. Additional study details and patient characteristics are available in the referenced publications for each study. For SIRROUND-D and SIRROUND-T studies, sets of serum samples from demographically-matched healthy controls were obtained from commercial sources (BioIVT, Westbury, N.Y.).
Serum samples from baseline (week 0) and the time points indicated in Table 1 were provided for quantification of 1189 serum analytes using the SomaScan v3.1 platform (SomaLogic, Boulder, Colo.; www.somalogic.com), with the exception of RA-MAP TACERA, for which plasma samples were analyzed for 1301 analytes using the SomaScan v3.2 platform. For some studies, a redacted dataset reporting data for a subset of the analytes was obtained. Relative fluorescence unit (RFU) data were sequentially normalized for hybridization controls (internal standards per samples), median signal across all samples (assumes same total protein concentration across sample set), and calibration controls (common sample standards across analysis plates). Samples failed quality control standards defined by Somalogic were excluded from analyses. The normalized RFU values were log2-transformed for subsequent analyses.
Changes in analyte expression levels were calculated for individual samples as the log2 transform of the ratio of the analyte level at the indicated time point (visit level) over the analyte level at baseline (baseline level) for a given subject, i.e., log 2(visit level/baseline level). Changes in RA disease-associated analytes per sample were summarized using a pharmacodynamic (PD) molecular disease profile (M-DP) score, defined as the median value of the log 2(visit level/baseline level) values for analytes in the defined M-DP analyte set. […] PD M-DP scores in the log 2(visit level/baseline level) scale can be transformed to percent change from baseline, using the transformation: (2^M-DP score−1)×100%.
In selecting the best minimal set of analytes that performs similarly to the full 14-analyte set, analyte sets that results in significant associations between DAS28-CRP EULAR good vs. no response with p<0.05 for each study were prioritized (Table 4). […]

[2] = SIRROUND-D, score at week 4, sirukumab SC 50 mg q4w
[3] = SIRROUND-D, score at week 4, sirukumab SC 100 mg q2w
[4] = SIRROUND-D, score at week 24, sirukumab SC 50 mg q4w
[5] = SIRROUND-D, score at week 24, sirukumab SC 100 mg q2w
[6] = SIRROUND-H, score at week 4, sirukumab SC 50 mg q4w or adalimumab SC 40 mg q2w
[7] = SIRROUND-M, score at week 4, sirukumab SC 50 mg q4w
[8] = SIRROUND-M, score at week 4, sirukumab SC 100 mg q2w
[9] = SIRROUND-T, score at week 4, sirukumab SC 50 mg q4w
[10] = SIRROUND-T, score at week 4, sirukumab SC 100 mg q2w
[11] = SIRROUND-T, score at week 24, sirukumab SC 50 mg q4w
[12] = SIRROUND-T, score at week 24, sirukumab SC 100 mg q2w

B1: Sirukumab (antibody, chains of the INN, looked up, V domains shown)
VH: EVQLVESGGGLVQPGGSLRLSCAASGFTFSPFAMSWVRQAPGKGLEWVAKISPGGSWTYYSDTVTGRFTISRDNAKNSLYLQMNSLRAEDTAVYYCARQLWGYYALDIWGQGTTVTVSS
VL: EIVLTQSPATLSLSPGERATLSCSASISVSYMYWYQQKPGQAPRLLIYDMSNLASGIPARFSGSGSGTDFTLTISSLEPEDFAVYYCMQWSGYPYTFGGGTKVEIK
notes: a human anti-interleukin-6 (IL-6) monoclonal antibody
clinical efficacy in the underlying clinical studies (RA patients): clinically efficacious
M-DP score mean ± SD, All treated [1, 2]: −1.09 ± 0.80 log2 (fold/baseline)
M-DP score mean difference ± SD, Good vs. No [1, 2]: −0.47 ± 0.79 (0.0012) log2 (fold/baseline)
M-DP score mean ± SD, DAS28-CRP response group Good [1, 2]: −1.26 ± 0.78 log2 (fold/baseline)
M-DP score mean ± SD, DAS28-CRP response group Moderate [1, 2]: −1.05 ± 0.76 log2 (fold/baseline)
M-DP score mean ± SD, DAS28-CRP response group No [1, 2]: −0.79 ± 0.81 log2 (fold/baseline)
M-DP score mean ± SD, All treated [1, 3]: −1.21 ± 0.78 log2 (fold/baseline)
M-DP score mean difference ± SD, Good vs. No [1, 3]: −0.47 ± 0.76 (0.0041) log2 (fold/baseline)
M-DP score mean ± SD, DAS28-CRP response group Good [1, 3]: −1.39 ± 0.75 log2 (fold/baseline)
M-DP score mean ± SD, DAS28-CRP response group Moderate [1, 3]: −1.01 ± 0.75 log2 (fold/baseline)
M-DP score mean ± SD, DAS28-CRP response group No [1, 3]: −0.92 ± 0.81 log2 (fold/baseline)
M-DP score mean ± SD, All treated [1, 4]: −1.43 ± 0.82 log2 (fold/baseline)
M-DP score mean ± SD, DAS28-CRP response group Good [1, 4]: −1.50 ± 0.83 log2 (fold/baseline)
M-DP score mean ± SD, DAS28-CRP response group Moderate [1, 4]: −1.46 ± 0.57 log2 (fold/baseline)
M-DP score mean ± SD, DAS28-CRP response group No [1, 4]: 0.27 ± 0.00 log2 (fold/baseline)
M-DP score mean ± SD, All treated [1, 5]: −1.79 ± 0.78 log2 (fold/baseline)
M-DP score mean ± SD, DAS28-CRP response group Good [1, 5]: −1.80 ± 0.80 log2 (fold/baseline)
M-DP score mean ± SD, DAS28-CRP response group Moderate [1, 5]: −1.84 ± 0.95 log2 (fold/baseline)
M-DP score mean ± SD, DAS28-CRP response group No [1, 5]: −1.59 ± 0.19 log2 (fold/baseline)
M-DP score mean ± SD, All treated [1, 6]: −0.88 ± 0.69 log2 (fold/baseline)
M-DP score mean difference ± SD, Good vs. No [1, 6]: −0.40 ± 0.59 (0.0549) log2 (fold/baseline)
M-DP score mean ± SD, DAS28-CRP response group Good [1, 6]: −0.92 ± 0.65 log2 (fold/baseline)
M-DP score mean ± SD, DAS28-CRP response group Moderate [1, 6]: −0.95 ± 0.74 log2 (fold/baseline)
M-DP score mean ± SD, DAS28-CRP response group No [1, 6]: −0.52 ± 0.41 log2 (fold/baseline)
M-DP score mean ± SD, All treated [1, 7]: −1.69 ± 0.76 log2 (fold/baseline)
M-DP score mean difference ± SD, Good vs. No [1, 7]: −0.96 ± 0.66 (0.0010) log2 (fold/baseline)
M-DP score mean ± SD, DAS28-CRP response group Good [1, 7]: −1.92 ± 0.63 log2 (fold/baseline)
M-DP score mean ± SD, DAS28-CRP response group Moderate [1, 7]: −1.34 ± 0.75 log2 (fold/baseline)
M-DP score mean ± SD, DAS28-CRP response group No [1, 7]: −0.96 ± 0.85 log2 (fold/baseline)
M-DP score mean ± SD, All treated [1, 8]: −1.87 ± 0.75 log2 (fold/baseline)
M-DP score mean ± SD, DAS28-CRP response group Good [1, 8]: −1.86 ± 0.69 log2 (fold/baseline)
M-DP score mean ± SD, DAS28-CRP response group Moderate [1, 8]: −1.99 ± 0.94 log2 (fold/baseline)
M-DP score mean ± SD, DAS28-CRP response group No [1, 8]: −1.21 ± 0.43 log2 (fold/baseline)
M-DP score mean ± SD, All treated [1, 9]: −1.02 ± 0.84 log2 (fold/baseline)
M-DP score mean difference ± SD, Good vs. No [1, 9]: −0.39 ± 0.73 (0.0126) log2 (fold/baseline)
M-DP score mean ± SD, DAS28-CRP response group Good [1, 9]: −0.91 ± 0.75 log2 (fold/baseline)
M-DP score mean ± SD, DAS28-CRP response group Moderate [1, 9]: −0.82 ± 0.79 log2 (fold/baseline)
M-DP score mean ± SD, DAS28-CRP response group No [1, 9]: −0.50 ± 0.70 log2 (fold/baseline)
M-DP score mean ± SD, All treated [1, 10]: −0.79 ± 0.76 log2 (fold/baseline)
M-DP score mean difference ± SD, Good vs. No [1, 10]: −0.34 ± 0.81 (0.0416) log2 (fold/baseline)
M-DP score mean ± SD, DAS28-CRP response group Good [1, 10]: −1.13 ± 0.80 log2 (fold/baseline)
M-DP score mean ± SD, DAS28-CRP response group Moderate [1, 10]: −1.05 ± 0.93 log2 (fold/baseline)
M-DP score mean ± SD, DAS28-CRP response group No [1, 10]: −0.79 ± 0.83 log2 (fold/baseline)
M-DP score mean ± SD, All treated [1, 11]: −0.85 ± 0.81 log2 (fold/baseline)
M-DP score mean difference ± SD, Good vs. No [1, 11]: −0.43 ± 0.79 (0.0167) log2 (fold/baseline)
M-DP score mean ± SD, DAS28-CRP response group Good [1, 11]: −0.98 ± 0.81 log2 (fold/baseline)
M-DP score mean ± SD, DAS28-CRP response group Moderate [1, 11]: −0.88 ± 0.81 log2 (fold/baseline)
M-DP score mean ± SD, DAS28-CRP response group No [1, 11]: −0.55 ± 0.76 log2 (fold/baseline)
M-DP score mean ± SD, All treated [1, 12]: −1.03 ± 0.83 log2 (fold/baseline)
M-DP score mean difference ± SD, Good vs. No [1, 12]: −0.44 ± 0.78 (0.0067) log2 (fold/baseline)
M-DP score mean ± SD, DAS28-CRP response group Good [1, 12]: −1.18 ± 0.80 log2 (fold/baseline)
M-DP score mean ± SD, DAS28-CRP response group Moderate [1, 12]: −1.19 ± 0.90 log2 (fold/baseline)
M-DP score mean ± SD, DAS28-CRP response group No [1, 12]: −0.74 ± 0.75 log2 (fold/baseline)
